B1: Ephrin B2: ligand of receptor tyrosine kinases EPHB1, EPHB2, EPHB3 (protein, UniProt P52799 28-333, looked up)
Ephrin-B2: IVLEPIYWNSSNSKFLPGQGLVLYPQIGDKLDIICPKVDSKTVGQYEYYKVYMVDKDQADRCTIKKENTPLLNCAKPDQDIKFTIKFQEFSPNLWGLEFQKNKDYYIISTSNGSLEGLDNQEGGVCQTRAMKILMKVGQDASSAGSTRNKDPTRRPELEAGTNGRSSTTSPFVKPNPGSSTDGNSAGHSGNNILGSEVALFAGIASGCIIFIVIIITLVVLLLKYRRRHRKHSPQHTTTLSLSTLATPKRSGNNNGSEPSDIIIPLRTADSVFCPHYEKVSGDYGHPVYIVQEMPPQSPANIYYKV
B2: NGF: NGF (Sigma 2.5 S #N-6009) (protein, UniProt P01139 122-241, looked up)
Beta-nerve growth factor: SSTHPVFHMGEFSVCDSVSVWVGDKTTATDIKGKEVTVLAEVNINNSVFRQYFFETKCRASNPVESGCRGIDSKHWNSYCTTTHTFVKALTTDEKQAAWRFIRIDTACVCVLSRKATRRG
modifications: 2.5S NGF
B3: BDNF: ligand of receptor tyrosine kinase NTRK2 (protein, UniProt P23560 19-247, looked up)
Neurotrophic factor BDNF …: APMKEANIRGQGGLAYPGVRTHGTLESVNGPKAGSRGLTSLADTFEHVIEELLDEDQKVRPNEENNKDADLYTSRVMLSSQVPLEPPLLFLLEEYKNYLDAANMSMRVRRHSDPARRGELSVCDSISEWVTAADKKTAVDMSGGTVTVLEKVPVSKGQLKQYFYETKCNPMGYTKEGCRGIDKRHWNSQCRTTQSYVRALTMDSKKRIGWRFIRIDTSCVCTLTIKRGR
B4: Pehrin A3: ligand of receptor tyrosine kinases EPHA2 and EPHA3 (protein, UniProt P52797 23-214, looked up)
Ephrin-A3: QGPGGALGNRHAVYWNSSNQHLRREGYTVQVNVNDYLDIYCPHYNSSGVGPGAGPGPGGGAEQYVLYMVSRNGYRTCNASQGFKRWECNRPHAPHSPIKFSEKFQRYSAFSLGYEFHAGHEYYYISTPTHNLHWKCLRMKVFVCCASTSHSGEKPVPTLPQFTMGPNVKINVLEDFEGENPQVPKLEKSISG

Assays:
[1] = tested on: human neuroblastoma SHSY5Y; assay: Marker enzyme expression (ChAT, TH) in the presence of each ligand of the receptor tyrosine kinase; format: cell-based; details: SHSY5Y cells, ChAT vs TH, beta-actin control, FIG. 19
From the text: Cholinergic neuron-like cells were identified by using anti-choline acetyltransferase antibody, and dopaminergic neuron-like cells were identified by using anti-tyrosine hydroxylase antibody, both of which are available from Clontech.
Next, the marker enzyme expression in the presence of each ligand of the receptor tyrosine kinase has been studied.

[2] = tested on: human neuroblastoma SHSY5Y; assay: Differentiation (neuritegenesis) of SH-SY5Y cells by RA or NGF; format: cell-based; details: SH-SY5Y culture with RA or NGF added, FIG. 13
Method: Human neuroblastoma (SHSY5Y) cells were maintained in Eagle's minimum essential medium (EMEM) supplemented with 10% (v/v) foetal bovine serum (FBS), 2% (v/v) glutamine and 1% (v/v) penicillin/streptomycin (10% medium), hereafter referred to as growth medium. Cells were incubated at 37° C. in a humidified atmosphere of 5% carbon dioxide.
Differentiation has been performed according to Yamada Y. et al., Neurosci Lett. 2004 Jun. 24; 364(1):11-15. Briefly, 100 ng/ml of NGF or […] of retinoic acid was added to the culture medium differentiate the SHSY5Y cells. Usually, when retinoic acid is added, the cell differentiates into cholinergic neuron-like cell as exemplified in FIG. 13. When NGF is added, the cell differentiates into dopaminergic neuron-like cells as exemplified in FIG. 13.

Molecule	Marker enzyme expression (ChAT, TH) in the presence of ligand [1]	Differentiation of SH-SY5Y cells [2]
insulin: ligand of receptor tyrosine kinase INSR [reference compound]	dopaminergic	
B1	dopaminergic	
B2	dopaminergic	differentiated into doperminergia neuron-like cells
B3	dopaminergic	
B4	dopaminergic	

— patent US20070174009A1, “Methods and systems for analyzing a network of biological functions” (National Institute Of Advanced Industrial Science And …, priority 2004, published 2007)
